± gives the uncertainty stated by the source.
Assay: self-splicing fitness, log relative to wild type (ln ratio); higher = more splicing; Tetrahymena group I intron in knt gene, E. coli kanamycin selection, DiMSum; sequences stand for … in CUCUCU…GGAGGGAAAAGUUAUCAGGCAUGCACCUGGUAGCUAGUCUUUAAACCAAUAGAUUGCAUCGGUUUAAAAGGCAAGACCGUCAAAUUGCGGGAAAGGGGUCAACAGCCGUUCAGUACCAAGUCUCAGGGGAAACUUUGAGAUGGCCUUGCAAAGGGUAUGGUAAUAAGCUGACGGACAUGGUCCUAACCACGCAGCCAAGUCCUAAGUCAACAGAUCUUCUGUUGAUAUGGAUGCAGUUCACAGACUAAAUGUCGGUCGGGGAAGAUGUAUUCUUCUCAUAAGAUAUAGUCGGACCUCUCCUUAAUGGGAGCUAGCGGAUGAAGUGAUGCAACACUGGAGCCGCUGGGAACUAAUUUGUAUGCGAAAGUAUAUUGAUUAGUUUUGGAGUACUCGUGGUCG
Summary of the method: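 Fitness was computed with DiMSum as the error-weighted combination of replicate fold changes, kanamycin versus none, each normalised to wild type. The library randomised all eight intron nucleotides of the P1ex region, with the intron placed in the knt kanamycin-resistance gene on pET-22b(+) in E. coli BL21(DE3). Six replicate transformations were grown overnight at 37°C or 30°C on LB agar with or without 25 μg/mL kanamycin, plus 100 μg/mL carbenicillin, 50 μM IPTG and 0.2% rhamnose. Pooled colonies were amplicon-sequenced on an Illumina HiSeq 2500.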

| Sequence | self-splicing fitness (ln) (37 °C) | self-splicing fitness (ln) (30 °C) |
| --- | --- | --- |
| UCAGAGCAAUAUUACGGGAA | -2.4 ± 0.2 |  |
| CUCAAGCAAUAUUACGAAAA | -2.65 ± 0.28 | -3.12 ± 0.28 |
| UUUCAGCAAUAUUACGUCCC | -0.811 ± 0.4 | -1.43 ± 0.39 |
| UUGCAGCAAUAUUACGACCC | -0.535 ± 0.4 |  |
| AGUGAGCAAUAUUACGUGGG | -2.51 ± 0.23 | -3.7 ± 0.29 |
| CCUGAGCAAUAUUACGGCAA | -2.42 ± 0.21 | -2.14 ± 0.22 |
| GUUUAGCAAUAUUACGGUGC | 0.233 ± 0.44 | -1.02 ± 0.32 |
| GUGUAGCAAUAUUACGCGGC | -0.745 ± 0.23 | -2.8 ± 0.29 |
| AUUAAGCAAUAUUACGGCGA | -0.121 ± 0.14 | -0.67 ± 0.12 |
| CGCGAGCAAUAUUACGUAGC | -2.5 ± 0.32 | -3.66 ± 0.3 |
| ACUCAGCAAUAUUACGGUAG | -2.92 ± 0.15 | -3.73 ± 0.13 |
| CAGGAGCAAUAUUACGUUUG | -1.43 ± 0.14 | -3.14 ± 0.14 |
| AUCUAGCAAUAUUACGACAC | 0.13 ± 0.13 | -1.02 ± 0.11 |
| CUAUAGCAAUAUUACGCGGU | -2.29 ± 0.22 | -3.7 ± 0.24 |
| GCUUAGCAAUAUUACGCGCU | -2.47 ± 0.21 | -2.33 ± 0.16 |
| CAGUAGCAAUAUUACGAGCC | -3.14 ± 0.47 | -3.88 ± 0.37 |
| AUAUAGCAAUAUUACGAAGU | -1.63 ± 0.36 | -3.37 ± 0.3 |
| GCCGAGCAAUAUUACGUCGA | -0.182 ± 0.14 | -2.36 ± 0.2 |
| GACAAGCAAUAUUACGUGUA | -0.227 ± 0.078 | -1.56 ± 0.071 |
| UUGAAGCAAUAUUACGCCAA | -0.324 ± 0.11 | -0.371 ± 0.094 |
| UCAAAGCAAUAUUACGAUCA | -0.719 ± 0.11 | -0.91 ± 0.12 |
| AGCAAGCAAUAUUACGAGUU | -1.55 ± 0.16 | -2.98 ± 0.16 |
| CCAGAGCAAUAUUACGACGU | -3.28 ± 0.47 | -3.74 ± 0.27 |
| CCAUAGCAAUAUUACGCAUA | -2.72 ± 0.29 | -3.76 ± 0.26 |
| CCCAAGCAAUAUUACGUCUA | -2.92 ± 0.23 | -4.2 ± 0.3 |

| Sequence | self-splicing fitness (ln) (37 °C) | self-splicing fitness (ln) (30 °C) |
| --- | --- | --- |
| CUAUAGCAAUAUUACGCGAC | 0.00503 ± 0.2 | -1.89 ± 0.18 |
| CGUAAGCAAUAUUACGCGGC | -2.23 ± 0.3 | -2.84 ± 0.25 |
| ACCGAGCAAUAUUACGAUCU | -0.405 ± 0.15 | -1.66 ± 0.14 |
| CUCUAGCAAUAUUACGGUUC | -2.46 ± 0.29 | -2.69 ± 0.17 |
| AUGUAGCAAUAUUACGGGUU | -2.23 ± 0.19 | -2.26 ± 0.1 |
| GCGCAGCAAUAUUACGAACG | -0.329 ± 0.17 | -1.37 ± 0.11 |
| GGCGAGCAAUAUUACGUGCC | -2.25 ± 0.45 |  |
| UCACAGCAAUAUUACGUAGU | -2.6 ± 0.17 | -3.38 ± 0.12 |
| GGACAGCAAUAUUACGUCUG | -0.31 ± 0.072 | -1.1 ± 0.057 |
| CUCGAGCAAUAUUACGUUUG | -2.11 ± 0.16 | -3.74 ± 0.24 |
| UGUUAGCAAUAUUACGACCG | 0.106 ± 0.14 | -0.238 ± 0.14 |
| UUACAGCAAUAUUACGCCAG | -1.05 ± 0.21 | -1.74 ± 0.15 |
| AACGAGCAAUAUUACGAACA | -1.9 ± 0.16 | -3.15 ± 0.28 |
| GCACAGCAAUAUUACGCGCA | -0.327 ± 0.093 | -0.993 ± 0.099 |
| CGGAAGCAAUAUUACGACCU | 0.399 ± 0.11 | 0.28 ± 0.096 |
| UAAUAGCAAUAUUACGUUGU | -1.98 ± 0.19 | -3.53 ± 0.18 |
| AAGAAGCAAUAUUACGCCGA | -0.757 ± 0.15 | -0.879 ± 0.12 |
| UAUUAGCAAUAUUACGCAUA | -0.355 ± 0.26 | -0.754 ± 0.29 |
| GGAUAGCAAUAUUACGUUAG | -2 ± 0.23 |  |
| AGCAAGCAAUAUUACGAGGU | -1.96 ± 0.2 | -3.87 ± 0.42 |
| AUAGAGCAAUAUUACGUAUC | -2.16 ± 0.43 | -2.94 ± 0.37 |
| AAAGAGCAAUAUUACGGUUG | -2.14 ± 0.25 | -3.84 ± 0.27 |
| GUGCAGCAAUAUUACGAGAU | -1.98 ± 0.19 | -3.67 ± 0.2 |
| AGGGAGCAAUAUUACGUGCC |  | -2.79 ± 0.46 |
